Results taken from the supplement of paper PMC12042874.
± gives the uncertainty stated by the source.

assay: amyloid nucleation score (Sup35N fusion, yeast selection) (log enrichment); library NNK1; higher = more nucleation; inactive = no reads after selection
Method in brief: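 The nucleation score is the DiMSum log enrichment of output over input reads, centred on the mode score of non-aggregating sequences. Only sequences with 100 or more input reads were scored, using Illumina sequencing of input and output plasmid inserts. Psi-negative yeast expressing Sup35N fused to peptides of 20 random codons were induced 24 hours with 100 μM copper sulfate and grown 7 days at 30°C on medium lacking adenine and uracil.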

| Substance | amyloid nucleation score |
| --- | --- |
| KYRASYRNHRDMGDSAVYGY | 0.044 ± 0.26 |
| KYWVGWAVSFCVWYLTRLWE | 0.337 ± 0.67 |
| KYWWY | 0.265 ± 0.2 |
| LAFTNRVVVWESWSAMAVRW | -0.173 ± 0.66 |
| LAIFSMFALFSIFGWSNDFT | -0.309 ± 0.43 |
| LAISL | -0.444 ± 0.36 |
| LAIVGQACRGVVEHARVSGH | 0.136 ± 0.41 |
| LAKFESSEVACSLFFAISLA | -0.997 ± 0.94 |
| LAKGGPL | -0.813 ± 0.54 |
| LALLWDMPF | -2.19 ± 2.7 |
| LALMFFNLKSCIFMSMWLFT | 1.65 ± 0.57 |
| LALPIFAFER | -0.839 ± 0.46 |
| LAMFHSWGVGFATLGVKISE | 1.04 ± 0.78 |
| LAPASLSSSGYKNCFNRTVR | 4.08 ± 0.11 |
| LAQELGR | 1.68 ± 0.73 |
| LASSIFASFRTFVQPSVSGY | -0.146 ± 0.48 |
| LCCRLMTTICPKLCSVLLMS | 0.217 ± 0.28 |
| LCEVRDCWVL | 0.783 ± 0.41 |
| LCFMLEKWHLF | -0.566 ± 1.1 |
| LCGISSSCYVVGSLRVIWLS | 0.147 ± 0.65 |
| LCKPCLGY | 0.639 ± 0.24 |
| LCLGCGYGEETI | 0.069 ± 0.37 |
| LCLLPG | 0.888 ± 0.5 |
| LCLSCLWMGETRPRSNPVNL | 6.24 ± 0.068 |
| LCLVFVNLVLQRYGIASWYT | 0.531 ± 0.3 |
| LCMVAQLWYQPV | 2.01 ± 0.16 |

| Substance | amyloid nucleation score |
| --- | --- |
| LCVFVKAGVCWGRTVIRKSG | inactive |
| LDFMSLHN | 0.218 ± 1 |
| LDGGIIRRILVIVKCWGRCC | 0.108 ± 0.2 |
| LDHYDVSGNRMVL | -0.487 ± 0.27 |
| LDIRVCRLPRSVFNR | -0.002 ± 1 |
| LDLSSWGTVP | 0.122 ± 0.44 |
| LDMKSFEQLVKQLPCTWADD | 0.222 ± 0.41 |
| LDSDGVASYDTRMSIRWYIE | 2 ± 0.49 |
| LDWAWFYCSRNKRFSTILFR | 0.138 ± 0.79 |
| LDYSSRSPLTDLST | 0.041 ± 0.65 |
| LECYEVYRYRKCLCCIVCVC | 0.633 ± 0.42 |
| LEGVFAAALSNKMIRYIRDV | 1.19 ± 0.53 |
| LERYVSMRFSWWDSSKKNTW | 4.18 ± 0.086 |
| LFDNFIAHMGCSRIPYDSHS | -0.086 ± 0.3 |
| LFFTGVHRKF | 4.28 ± 0.064 |
| LFHANQKHAGWSRASTLEAC | -0.954 ± 0.54 |
| LFHCRSIDRNLYYRHAFLIY | 0.466 ± 0.39 |
| LFHLPSVYIWFYAT | 6.723 ± 0.053 |
| LFIDVSR | -0.021 ± 1.6 |
| LFLCMDTYIYLNLNSGGYSG | 4.8 ± 0.1 |
| LFLHVSMVS | -1.31 ± 1.4 |
| LFLKRGPSCTCLLRKSTIEH | 0.182 ± 0.69 |
| LFNGLYHLVMRVMWRRLV | -0.061 ± 1.2 |
| LFRRRKITTVYIDKNAMLTS | inactive |
| LFVHFLTLSVISHYPRGN | inactive |
| LFVLKTWLRNSDWFRYDESQ | -0.094 ± 0.68 |

| Substance | amyloid nucleation score |
| --- | --- |
| LFYLFPELMWDMQLCKVDGW | 1.4 ± 0.44 |
| LGFAA | -0.339 ± 1.3 |
| LGFAW | 0.003 ± 0.45 |
| LGFQLFNQGWAQNSTPRFSY | -1.29 ± 1.9 |
| LGGVSSVLFYSHFLQVLEWC | -1.12 ± 0.78 |
| LGIFSNIYGFV | 0.277 ± 0.45 |
| LGLDGCSSMLEEDFCR | 0.45 ± 0.52 |
| LGLGQSGRV | -0.15 ± 0.71 |
| LGLMTFFVWFNWG | -1.43 ± 1 |
| LGRGSGYRVLVMYLSVHC | 0.164 ± 0.29 |
| LGRKKGFMTYSGLYYVRLWA | -0.81 ± 1.4 |
| LGRRIPCNLEWHHLDGALTR | 0.013 ± 0.36 |
| LGRSENDI | 1.19 ± 0.4 |
| LGSRFMRV | 0.635 ± 1.2 |
| LGSVDIRAQCLVNMNMLLSS | 0.308 ± 0.43 |
| LGTKL | 0.601 ± 0.63 |
| LGTSEKGNRKNR | inactive |
| LGTVRVLEHEVVWHYVLEAR | 0.485 ± 0.6 |
| LGVMMFRCVL | 3.79 ± 0.16 |
| LGVPRVISCSCHLSVRNSAK | 0.413 ± 0.9 |
| LHAGHSSLNALAYSFRLHDR | 0.775 ± 0.52 |
| LHAGRDSAASGPRISIWKPM | 0.077 ± 0.38 |
| LHAYTLSYGLLVLSARSHEL | -0.01 ± 0.67 |
| LHCARGLVRRNMSSSLRWLA | inactive |
| LHESVFSWSSKLSLRHGYLR | 0.159 ± 0.7 |
| LHIFLTLHNQHVWARNGGKL | 0.603 ± 0.35 |

| Substance | amyloid nucleation score |
| --- | --- |
| LHIIRRNRDSIAFVYWTV | 0.756 ± 0.41 |
| LHLFGQ | 0.067 ± 0.38 |
| LHMTFFTPVDLVVQRTDFRL | 0.971 ± 0.52 |
| LHRSQMIFMCLSVTYSAK | -0.209 ± 0.47 |
| LHTAETGRLHNAYVILVVYC | inactive |
| LHVISGFYKCRTKRL | 0.862 ± 0.32 |
| LIAPGFPERCRQGRMYEF | -0.234 ± 1.2 |
| LICNFRLSRYQSAVNVVYWV | 0.802 ± 0.14 |
| LIFNQLWWRKSMCLQVRPGQ | -1.25 ± 0.92 |
| LIFRRGTALFVLPVARYRCA | -1.57 ± 1.8 |
| LIGFAGRVYGAFLQVSMTWN | 3.2 ± 0.15 |
| LIGRIGDFLA | 0.097 ± 0.72 |
| LILSYAN | 1.33 ± 0.66 |
| LINDRPPSSAMERRNVATSS | 0.096 ± 0.57 |
| LIRMHTICVWDSSVIMSIMA | -0.354 ± 0.44 |
| LISCIRFYCSVLGVDCTDSV | 0.235 ± 0.39 |
| LIYVLYLY | 0.501 ± 0.55 |
| LKAHPSVTSCPVRSLI | -0.281 ± 0.39 |
| LKMFSRPCVMIKNRTGVR | 0.452 ± 0.33 |
| LKSSNVPTRNVMRYMPSAFE | -0.292 ± 0.59 |
| LLATCVRVECY | 1.58 ± 0.51 |
| LLCFLFTK | 3.32 ± 0.15 |
| LLDKISNRPTQYGTTVPPVP | 0.573 ± 0.45 |
| LLFHSGWMMNGNPWACWYRE | 1.89 ± 0.25 |
| LLFTNEKHNSLVNQGTPEWC | 0.13 ± 0.9 |
| LLGRLVQCCRPWY | -1.17 ± 2.7 |

| Substance | amyloid nucleation score |
| --- | --- |
| LLGYLAMCS | 1.01 ± 0.23 |
| LLIALFSW | 1.34 ± 0.25 |
| LLIVYYNVDITQCRWFTELC | -0.16 ± 0.58 |
| LLLRSRSTRF | -0.233 ± 0.3 |
| LLLTWFFPQHASRVNMSYSS | 0.024 ± 0.39 |
| LLLYDPREC | -1.46 ± 0.91 |
| LLLYSGEFNS | -0.433 ± 0.39 |
| LLNAAHIEGT | 0.064 ± 0.59 |
| LLNCLWDKMWTGLVRCIKNG | -0.075 ± 0.35 |
| LLNVVCRARVWS | -0.241 ± 0.32 |
| LLPGLIEWSVGLMCLIL | 0.023 ± 0.9 |
| LLPYSLMLRDLGFLKHYLGV | -0.264 ± 0.61 |
| LLRCPYLNFGASMYLIRFCS | 0.404 ± 0.53 |
| LLRGTIFVNDRVTID | 0.973 ± 0.59 |
| LLRWFALGTYVSGWRWDERR | -0.179 ± 0.32 |
| LLTDRRDSSSRNDTLVRKGM | 2.23 ± 0.091 |
| LLTSIPRRVIARVSEGFCCN | -0.311 ± 0.71 |
| LLTTIGQTRMVIHKGIERNE | 1.77 ± 0.14 |
| LLVLYCALLMRLSGLGHAWG | -0.269 ± 0.51 |
| LLVMVVMGCCA | 0.163 ± 0.83 |
| LLVPHYFLEL | 0.222 ± 0.43 |
| LLVRNMSNVVPLMFSIPSNV | 0.458 ± 0.65 |
| LLWISRTRPYWLLFSVWKLA | -0.107 ± 0.9 |
| LLWTKFGYCYRIEWSAVWFF | -0.527 ± 0.52 |
| LLYISSTVM | 1.07 ± 0.38 |
| LLYSMDRQVLMSAISLLSIT | 0.903 ± 0.63 |
